Results as given in article PMC11933065, “Characterization of FosA13, a novel fosfomycin glutathione transferase identified in a Morganella morganii isolate from poultry” (Frontiers in Cellular and Infection Microbiology, 2025).

Test system: C[C@@H]1O[C@@H]1P(=O)(O)O
Assay: HPLC, initial rates, Michaelis-Menten fit
Type: biochemical, Morganella morganii
Details: 10 mM GSH, 250 µM MnCl2, 100 mM KCl, 100 mM Tris-HCl, 37 °C, fosfomycin 0-800 µM, printed unit µM conflicts with printed kcat/Km (1.50 × 10^4 M^-1 s^-1), which implies mM

Substance “FosA13 (Morganella morganii subsp. morganii KT)” has a kcat of 6.43 ± 0.04 s⁻¹.
